What was measured:
[1] = target: T1, Dcp1(1-127) (S. pombe, UniProt Q9P805 1-127, perdeuterated background, 1H/13C-labelled ILVMA terminal methyl groups); assay: co-purification
T1 sequence (looked up): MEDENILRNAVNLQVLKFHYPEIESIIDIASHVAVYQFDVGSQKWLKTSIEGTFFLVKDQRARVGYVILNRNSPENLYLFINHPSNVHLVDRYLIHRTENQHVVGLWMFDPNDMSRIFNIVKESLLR

[2] = target: T2, Dcp1/Dcp2core (Schizosaccharomyces pombe, UniProt Q9P805;O13828 1-127;1-243); assay: fluorescence polarization
T2 sequence 1: T1 sequence (looked up)
T2 sequence 2: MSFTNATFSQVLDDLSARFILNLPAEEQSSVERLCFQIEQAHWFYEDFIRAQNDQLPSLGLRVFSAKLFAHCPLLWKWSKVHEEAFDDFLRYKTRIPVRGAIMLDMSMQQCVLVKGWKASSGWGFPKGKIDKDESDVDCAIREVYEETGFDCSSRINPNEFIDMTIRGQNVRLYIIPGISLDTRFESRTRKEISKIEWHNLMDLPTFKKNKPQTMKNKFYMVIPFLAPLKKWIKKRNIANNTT

B1: Dcp2(1-504)_(eSrtA), sortase-ligated Dcp2ext with C-terminal StrepII (domain or fragment, S. pombe)
chain: MSFTNATFSQVLDDLSARFILNLPAEEQSSVERLCFQIEQAHWFYEDFIRAQNDQLPSLGLRVFSAKLFAHCPLLWKWSKVHEEAFDDFLRYKTRIPVRGAIMLDMSMQQCVLVKGWKASSGWGFPKGKIDKDESDVDCAIREVYEETGFDCSSRINPNEFIDMTIRGQNVRLYIIPGISLDTRFESRTRKEISKIEWHNLMDLPTFKKNKPQTMKNKFYMVIPFLAPLKKWIKKRNIANNTTKEKNISVDVDADASSQLLSLLKSLPETGGGATPQPSTFPQPPVESHSSFDIKQKILHLLNEGNEPKSPIQLPPVSNLPLNPPIQSSNSRLSHDNNSFDPFAYLGLDPKNPSASFPRVVSQNNMLTNKPVLNNHFQQSMYSNLLKDQNSVQHLFAASDMPSPMELPSPSTVYHQVFYPPTSTSVSSYGLGKTPQPAYGSSSPYVNGHQTQQISSLPPFQSQTQFLARNSDNSGQSYNSEGDSNSKRLLSMLSQQDTTPSSST
modifications: residues 1-266 perdeuterated with 1H/13C-labelled ILVMA terminal methyl groups; 274-504 unlabelled
- binding result [1]: binds

Binder: UUUUUUUUUUUUUUUUUUUUUUUUUUUUUU (ssRNA, 5' phosphate) [30U RNA]
- binding result [2]: binds

From publication doi:10.1101/2020.07.09.195057 (bioRxiv, 2020)
